Measured values taken from patent publication US20260275344.

Tested on: PiggyBac transposase
Test: cell_activity

With ITR-EF1a-GFP-ITR cssDNA the activity (K562 day 21, donor alone ~2.37%) was 39.3 % GFP+ cells and the activity (primary human T cells day 14, donor alone ~0.16%) was 7.54 % GFP+ cells.
